# Laboratory results taken from patent publication US20210206856A1 (PANDION OPERATIONS, published 2021).
# Where a chain is given by its changes, count along the chain named. In names and notes the source's numbering stands.
# T1: CD25 (Homo sapiens (Human), UniProt P01589 22-240)
# T1 construct: also called IL-2R alpha chain
# T1 sequence: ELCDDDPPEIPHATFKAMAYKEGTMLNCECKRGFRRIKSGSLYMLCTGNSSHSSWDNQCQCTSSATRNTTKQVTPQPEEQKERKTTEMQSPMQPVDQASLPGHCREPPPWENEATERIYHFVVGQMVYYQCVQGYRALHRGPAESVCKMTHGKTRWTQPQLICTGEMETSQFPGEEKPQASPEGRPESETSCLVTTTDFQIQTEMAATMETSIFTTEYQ
# T2: mouse PD-1 on cells (mouse, UniProt Q02242 25-288)
# T2 sequence (looked up): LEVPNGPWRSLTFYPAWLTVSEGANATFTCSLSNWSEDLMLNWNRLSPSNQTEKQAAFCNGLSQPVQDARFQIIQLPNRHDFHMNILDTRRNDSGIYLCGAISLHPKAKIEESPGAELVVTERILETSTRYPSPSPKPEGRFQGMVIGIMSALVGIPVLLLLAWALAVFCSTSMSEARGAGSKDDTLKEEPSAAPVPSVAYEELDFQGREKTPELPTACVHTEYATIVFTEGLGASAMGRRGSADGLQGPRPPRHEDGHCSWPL
# T3: human MAdCAM expressed on cells (human, UniProt Q13477 19-382)
# T3 construct: whole, on cells; also called MADCAM1
# T3 sequence (looked up): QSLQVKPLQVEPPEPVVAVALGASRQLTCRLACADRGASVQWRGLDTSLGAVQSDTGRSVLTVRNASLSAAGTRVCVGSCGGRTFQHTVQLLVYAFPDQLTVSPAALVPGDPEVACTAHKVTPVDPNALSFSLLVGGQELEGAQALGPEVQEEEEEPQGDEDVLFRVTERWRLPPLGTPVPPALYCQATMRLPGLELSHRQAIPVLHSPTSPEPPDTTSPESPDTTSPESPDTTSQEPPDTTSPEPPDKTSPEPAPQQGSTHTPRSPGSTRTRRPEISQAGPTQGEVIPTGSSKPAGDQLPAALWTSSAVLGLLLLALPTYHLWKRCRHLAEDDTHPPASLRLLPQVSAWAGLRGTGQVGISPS
# T4: mouse MAdCAM expressed on cells (mouse, UniProt Q61826 22-405)
# T4 construct: whole, on cells
# T4 sequence (looked up): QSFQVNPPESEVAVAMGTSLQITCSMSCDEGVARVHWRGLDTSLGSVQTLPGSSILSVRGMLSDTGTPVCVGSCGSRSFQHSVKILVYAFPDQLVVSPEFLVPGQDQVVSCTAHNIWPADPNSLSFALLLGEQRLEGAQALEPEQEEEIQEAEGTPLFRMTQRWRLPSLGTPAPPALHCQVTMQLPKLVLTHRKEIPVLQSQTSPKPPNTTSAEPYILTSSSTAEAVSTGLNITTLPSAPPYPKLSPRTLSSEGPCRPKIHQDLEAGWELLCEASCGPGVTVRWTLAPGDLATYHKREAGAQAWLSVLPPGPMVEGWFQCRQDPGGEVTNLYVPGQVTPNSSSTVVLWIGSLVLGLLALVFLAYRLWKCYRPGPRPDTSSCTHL
# T5: recombinant mouse MAdCAM-1 (mouse, UniProt Q61826 22-365, limits assumed)
# T5 construct: also called mMAdCAM-1; mouse MAdCAM-Fc
# T5 sequence (looked up): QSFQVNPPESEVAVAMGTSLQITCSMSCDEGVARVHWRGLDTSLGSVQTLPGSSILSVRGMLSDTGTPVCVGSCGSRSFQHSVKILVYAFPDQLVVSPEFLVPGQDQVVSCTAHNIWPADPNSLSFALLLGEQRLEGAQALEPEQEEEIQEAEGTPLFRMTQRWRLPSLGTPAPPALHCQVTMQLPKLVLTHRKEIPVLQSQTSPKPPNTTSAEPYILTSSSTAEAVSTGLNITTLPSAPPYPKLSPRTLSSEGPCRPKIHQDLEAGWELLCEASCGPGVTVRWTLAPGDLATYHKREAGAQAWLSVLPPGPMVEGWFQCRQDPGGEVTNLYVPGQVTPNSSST
# B1: human IL-2 mutein fused N-terminally to human IgG1 Fc domain (SEQ ID NO: 57) (Fc fusion)
# chain: APTSSSTKKTQLQLEHLLLDLQMILNGINNYKNPKLTRMLTFKFYMPKKATELKHLQCLEEELKPLEEALNLAPSKNFHLRPRDLISDINVIVLELKGSETTFMCEYADETATIVEFLNRWITFSQSIISTLTGGGGSGGGGSGGGGSGGGGSDKTHTCPPCPAPEAAGAPSVFLFPPKPKDTLMISRTPEVTCVVVDVSHEDPEVKFNWYVDGVEVHNAKTKPREEQYNSTYRVVSVLTVLHQDWLNGKEYKCKVSNKALPAPIEKTISKAKGQPREPQVYTLPPSREEMTKNQVSLTCLVKGFYPSDIAVEWESNGQPENNYKTTPPVLDSDGSFFLYSKLTVDKSRWQQGNVFSCSVMHEALHNHYTQKSLSLSPG
# notes: also called IL-2 N88D V69A, Q74P-G4Sx4-Fc
# B2: IL-2 mutein SEQ ID NO: 54 (Fc fusion)
# chain: B1 chain with L56I
# notes: also called IL-2 L56I N88D V69A, Q74P, C125S-G4Sx4-Fc
# B3: IL-2 mutein SEQ ID NO: 53 (Fc fusion)
# chain: B1 chain with L53I
# notes: also called IL-2 L53I N88D V69A, Q74P, C125S-G4Sx4-Fc
# B4: IL-2 mutein SEQ ID NO: 56 (Fc fusion)
# chain: B1 chain with L118I
# notes: also called IL-2 L118I N88D V69A, Q74P, C125S-G4Sx4-Fc
# B5: IL-2 mutein SEQ ID NO: 55 (Fc fusion)
# chain: B1 chain with L80I
# notes: also called IL-2 L80I N88D V69A, C125S Q74P-G4Sx4-Fc
# B6: PD1AB7 (antibody, IgG1, V domains shown)
# VH: QVQLVQSGAEVKKPGASVKVSCKASGYSFTGHYIHWVRQAPGQGLEWMGIINPNGGSTTYAQKLQGRVTMTRDTSTSTVYMELSSLRSEDTAVYYCARGKFDFYGDYVTAFDIWGQGTMVTVSS
# VL: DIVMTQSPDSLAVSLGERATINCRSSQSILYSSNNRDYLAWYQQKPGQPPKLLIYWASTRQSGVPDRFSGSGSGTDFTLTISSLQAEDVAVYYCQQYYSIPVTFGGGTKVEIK
# B7: MAdCAM Antibody Table 1 Clone 6 (scFv)
# scFv: EVQLLESGGGLVQPGGSLRLSCAASGFTFNNYAFHWVRQAPGKGLEWVSRINSYGTSTTYADSVKGRFTISRDNSKNTLYLQMNSLRAEDTAVYYCAREGPVAGYWYFDLWGQGTLVTVSSGGGGSGGGGSGGGGSGGGGSDIQMTQSPSSLSASVGDRVTITCRASQIIGTNLAWYQQKPGKAPKLLIYGASSLQSGVPSRFSGSGSGTDFTLTISSLQPEDFATYYCQQSYRLPFTFGQGTKVEIK
# notes: also called Antibody Clone 6
# B8: MAdCAM Antibody Table 1 Clone 20 (scFv)
# scFv: EVQLLESGGGLVQPGGSLRLSCAASGFTFDDYAMHWVRQAPGKGLEWVSYIDTSSSHLYYADSVKGRFTISRDNSKNTLYLQMNSLRAEDTAVYYCARDEAAAGYYGMDVWGQGTTVTVSSGGGGSGGGGSGGGGSGGGGSDIQMTQSPSSLSASVGDRVTITCQAGQDISNYLNWYQQKPGKAPKLLIYDASNLETGVPSRFSGSGSGTDFTLTISSLQPEDFATYYCQQTYSTPITFGQGTKLEIK
# B9: MAdCAM Antibody Table 1 Clone 23 (scFv)
# scFv: EVQLLESGGGLVQPGGSLRLSCAASGFTFSSYAMHWVRQAPGKGLEWVSGISGSGGSAYYADSVKGRFTISRDNSKNTLYLQMNSLRAEDTAVYYCATSQAPVDYYYYGMDVWGQGTTVTVSSGGGGSGGGGSGGGGSGGGGSDIQMTQSPSSLSASVGDRVTITCRASQSISSWLAWYQQKPGKAPKLLIYAASNLQRGVPSRFSGSGSGTDFTLTISSLQPEDFATYYCQQSYSIPITFGQGTKVEIK
# B10: MAdCAM Antibody Table 1 Clone 19 (scFv)
# scFv: EVQLLESGGGLVQPGGSLRLSCAASGFTFDDYAMHWVRQAPGKGLEWVSGISWNSGSIGYADSVKGRFTISRDNSKNTLYLQMNSLRAEDTAVYYCAKDIVAAGHYYYGMDVWGQGTTVTVSSGGGGSGGGGSGGGGSGGGGSDIQMTQSPSSLSASVGDRVTITCQASQDISNYLNWYQQKPGKAPKLLIYDASNLETGVPSRFSGSGSGTDFTLTISSLQPEDFATYYCQQSYSTPLTFGGGTKVEIK
# Target: T1, CD25
# Test: ELISA, CD25 coated plate
row,EC50,Binder
1,< 1 nM,B1
2,< 1 nM,B2
3,< 1 nM,B3
4,< 1 nM,B4
5,< 1 nM,B5

# Target: T2, mouse PD-1 on cells
# Test: cell-based or functional assay
row,"Mouse agonist-CTG: IC50, IgG1",Binder
1,< 10 nM,B6

# Target: T3, human MAdCAM expressed on cells
# Test: cell binding
row,binding result,Binder
1,binds,B7
2,binds,B8
3,binds,B9
4,binds,B10

# Target: T4, mouse MAdCAM expressed on cells
# Test: cell binding
row,binding result,Binder
1,no binding,B7
2,no binding,B8
3,no binding,B9
4,no binding,B10

# Target: T5, recombinant mouse MAdCAM-1
# Test: Octet
row,binding result,Binder
1,no binding,B7
2,no binding,B8
3,no binding,B9
4,no binding,B10
